In the MegaScale stability set (Tsuboyama et al. 2023):

B1: EEHEE_rd4_0363 (parent)
chain: VTVDIKGMEYHFDNPEEAKKFAERMAKELGGELKVENGTLKVE

Variants of: B1
Test: folding stability dG (cDNA display proteolysis); higher = more stable
Settings: PBS, room temperature

Folding stability dG [kcal/mol] of substitutions, site by site:
G31: A 2.15, D 0.935, R 0.865, I 1.88, P 0.726, L 2.57, E 1.23, N 0.953, T 1.38, W 2.33, C 2.36, K 0.977, F 2.03, H 1.27, Y 2.12, M 2.32, S 1.39, V 1.85, Q 1.32
K34: W 1.82, I 2.28, D 1.01, M 1.66, E 1.02, Y 1.98, L 1.77, C 1.95, R 2.21, N 1.41, Q 1.42, S 1.68, G 1.03, H 1.82, T 1.9, F 2, V 2.26, A 1.33, P 0.802
E32: V 2.84, Q 2.41, A 2.15, D 1.67, M 2.31, G 1.4, S 2.48, P 0.989, T 2.81, N 2.21, C 2.56, Y 2.96, W 2.97, I 2.89, K 2.43, F 2.82, R 2.23, L 2.32, H 2.45
L33: I 2.48, Q 0.872, H 0.949, W 1.78, R 0.462, G 0.82, A 1.07, P 0.732, V 2.81, F 1.47, T 1.13, E 0.789, S 0.81, Y 1.43, D 0.762, N 0.799, M 1.61, K 0.659
N37: E 1.52, W 0.999, P 1.26, H 1.52, M 1.3, I 1.14, G 1.97, T 1.18, V 1.14, Q 1.46, Y 1.19, L 1.52, A 1.4, S 1.38, R 1.14, C 2.07, K 1.45, F 1.41, D 1.63
L40: V 1.35, N 0.85, R 0.347, H 0.973, I 2.6, P 0.807, E 0.788, A 0.864, F 1.94, C 1.47, Q 0.884, D 0.757, Y 2.27, S 0.813, M 1.67, G 0.861, K 0.532, T 0.992, W 2.28
L29: S 1.12, V 1.14, P 0.59, H 1.23, R 0.668, A 0.915, Q 1.06, F 1.55, Y 1.47, D 0.74, G 0.895, M 1.69, I 1.57, E 0.835, K 0.78, W 1.34, N 1.05, T 1.37
G30: R 1.6, L 1.34, F 1.43, C 2.23, H 1.74, W 1.17, D 1.52, N 1.93, V 1.01, K 1.66, M 1.55, I 1, E 1.41, T 1, A 1.43, P 0.76, S 1.5, Q 1.57, Y 1.27
M25: R 1.13, N 0.581, K 1.37, Q 1.05, V 1.44, L 1.45, W 2.1, S 0.692, Y 1.34, P -0.009, T 0.78
T39: C 1.89, I 2.81, P 0.866, A 1.6, S 1.69, N 1.84, K 2.43, M 2.24, D 1.17, F 1.88, V 2.77, Q 1.91, E 1.2, W 1.66, G 1.4, R 2.17, H 1.93, L 2.13, Y 1.95
V35: A 1.53, L 1.93, I 2.27, D 1.59, Y 2.48, P 0.972, M 2, S 1.61, Q 1.62, C 2.78, T 1.72, K 1.3, G 1.2, R 1.25, H 1.57, E 1.96, F 2.38, N 1.73, W 3.09
V42: I 2, W 1.06, H 0.832, E 0.783, F 1.02, A 0.786, N 0.799, K 0.582, Q 0.74, S 0.916, P 0.879, Y 0.816, T 0.943, L 1.74, D 0.806, G 0.841, C 1.4, R 0.352, M 0.942
E28: A 1.81, V 1.88, F 1.95, D 1.34, G 0.795, Y 2.07, R 1.81, W 2.26, K 1.92, P 0.477, Q 1.75, L 2.34, C 2.97, M 2.03, S 1.4, T 1.47, I 2.18, N 1.28, H 1.73
A26: I 1.6, G 0.834, S 1.3, W 1.48, Y 0.983, F 1.13, C 2.06, L 1.64, E 0.931, N 0.898, M 1.55, H 0.962, D 0.592, K 0.954, P -0.451, T 1.23, R 1.24, Q 1.3, V 1.66
K27: G 1.35, E 1.77, N 1.75, M 2.19, V 1.82, F 2.35, R 2.11, T 1.7, D 1.56, W 2.28, Y 2.27, P 0.089, C 2.48, Q 2.09, A 2.15, H 1.87, I 2.14, L 2.35, S 1.81
G38: M 1.1, P 0.815, H 1.25, Q 1.21, V 0.725, F 0.552, C 1.98, K 0.662, L 1.02, D 1.3, A 1.13, S 1.19, R 0.518, I 0.967, T 1.17, E 1.13, N 1.68, W 0.438, Y 0.501
E43: A 1.94, C 2.81
K41: N 0.986, M 1.63, F 2, H 1.61, W 1.65, V 2.02, A 1.09, R 2.17, S 1.45, I 2.1, C 1.64, T 1.73, D 0.86, Q 1.24, Y 1.92, P 0.852, G 1.01, L 1.62, E 0.957
E36: Y 1.86, V 2.54, F 1.88, G 1.61, C 2.26, K 1.4, L 2.02, Q 1.89, D 1.77, S 1.73, P 0.792, H 1.83, M 1.84, W 1.52, I 2.43, R 1.45, A 1.74, N 1.59, T 1.78
